Reference: patent publication EP4442276A1 (INSTITUT PASTEUR, dated 2024)

Biological target: Spike of SARS-CoV-2 reference D614G strain (hCoV-19/France/GE1973/2020) (SARS-CoV-2, UniProt P0DTC2 14-1273)
Experiment: cell-based or functional assay

B1: Cv2.3132 IgG antibody (antibody, V domains shown)
VH: EVQLVESGGGLVKPGGSLRLSCAASGFTFSDYYMSWIRQAPGKGLEWVSYISSSGSVQYYADSVKGRFTISRDNAKNSLYLQMNSLRAEDTAVYYCARYYYDSSGYWKRLDYWGQGTLVTVSS
VL: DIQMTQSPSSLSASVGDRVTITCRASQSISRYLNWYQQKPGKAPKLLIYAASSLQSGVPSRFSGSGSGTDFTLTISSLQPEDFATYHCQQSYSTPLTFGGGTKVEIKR
notes: also called anti-HR2 antibody Cv2.3132
IC50, S-Fuse neutralization assay: 35.4 µg/mL
